According to US20070098719A1 (GITR, published 2007):

Key:
[1] = biological target: T1, human GITR (hGITR), glucocorticoid-induced TNF receptor (human, UniProt Q9Y5U5 26-241); assay: FACS, L-M (mouse fibroblast) cells transfected with the GITR gene, 50 ul hybridoma supernatant
T1 construct: also called TNFRSF18
T1 sequence: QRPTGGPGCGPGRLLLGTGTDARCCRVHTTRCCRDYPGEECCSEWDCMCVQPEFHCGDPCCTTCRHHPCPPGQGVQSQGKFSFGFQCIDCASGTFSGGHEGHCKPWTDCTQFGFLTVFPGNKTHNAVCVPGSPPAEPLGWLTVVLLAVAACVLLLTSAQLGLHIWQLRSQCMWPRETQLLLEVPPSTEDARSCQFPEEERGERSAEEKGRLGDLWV
Experimental: FIG. 3 depicts a FACS analysis of L-M (mouse fibroblast) cells transfected with the GITR gene that were stained with 50 μl of supernatant fluid from GITR-expressing hybridoma cells. The GITR binding molecule stained GITR-transfected cells but not the untransfected L-M cells.

[2] = biological target: T2, human GITR (hGITR), glucocorticoid-induced TNF receptor (UniProt Q9Y5U5 26-241); assay: SPR
T2 chain: T1 sequence

B1: 6C8 antibody (antibody, V domains shown)
VH: QVTLKESGPGILKPSQTLSLTCSFSGFSLSTSGMGVGWIRQPSGKGLEWLAHIWWDDDKYYNPSLKSQLTISKDTSRNQVFLKITSVDTADAATYYCARTRRYFPFAYWGQGTLVTVSS
VL: DIVMTQSQKFMSTSVGDRVSVTCKASQNVGTNVAWYQQKPGQSPKALIYSASYRYSGVPDRFTGSGSGTDFTLTINNVHSEDLAEYFCQQYNTDPLTFGAGTKLEIK
notes: also called anti-GITR
binding result [1]: binds | Kd [2]: 1.1 nM
